Fold increase of binding (beta-galactosidase units) against P7L-Gag with Alix data for one substance are collected here from article PMC3907034.

This assay concerns the target HIV-1 P7L-S40A-Gag, full-length (HIV-1). Briefly: two-hybrid; Matchmaker GAL4 system, S. cerevisiae Y190, quantitative liquid beta-galactosidase assay; units normalized to P7L with Alix (panel B) or WT Gag with Alix (panel C).

With “full-length Alix (from UniProt Q8WUM4 1-868) (natural protein)”, the fold increase of binding (beta-galactosidase units) against P7L-Gag with Alix was determined as 7 fold.
